According to US20230287145A1 (Hoffmann-La Roche, published 2023):

B1: TYRP1 TCB containing optimized anti-CD3 antibody clone P035.093 (bispecific antibody, human IgG1, kappa, L234A L235A)
heavy 1: not shown
heavy 2: QVQLVQSGAEVKKPGASVKVSCKASGFNIKDYFLHWVRQAPGQGLEWMGWINPDNGNTVYAQKFQGRVTMTADTSTSTVYMELSSLRSEDTAVYYCTRRDYTYEKAALDYWGQGTLVTVSSASTKGPSVFPLAPSSKSTSGGTAALGCLVEDYFPEPVTVSWNSGALTSGVHTFPAVLQSSGLYSLSSVVTVPSSSLGTQTYICNVNHKPSNTKVDEKVEPKSCDKTHTCPPCPAPEAAGGPSVFLFPPKPKDTLMISRTPEVTCVVVDVSHEDPEVKFNWYVDGVEVHNAKTKPREEQYNSTYRVVSVLTVLHQDWLNGKEYKCKVSNKALGAPIEKTISKAKGQPREPQVCTLPPSRDELTKNQVSLSCAVKGFYPSDIAVEWESNGQPENNYKTTPPVLDSDGSFFLVSKLTVDKSRWQQGNVFSCSVMHEALHNHYTQKSLSLSP
light 1: DIQMTQSPSSLSASVGDRVTITCRASGNIYNYLAWYQQKPGKVPKLLIYDAKTLADGVPSRFSGSGSGTDFTLTISSLQPEDVATYYCQHFWSLPFTFGQGTKLEIKRTVAAPSVFIFPPSDRKLKSGTASVVCLLNNFYPREAKVQWKVDNALQSGNSQESVTEQDSKDSTYSLSSTLTLSKADYEKHKVYACEVTHQGLSSPVTKSFNRGEC
light 2: EVQLLESGGGLVQPGGSLRLSCAASGFTFSSYAMNWVRQAPGKGLEWVSRIRSKYNNYATYYADSVKGRFTISRDDSKNTLYLQMNSLRAEDTAVYYCVRASNFPASYVSYFAYWGQGTLVTVSSASVAAPSVFIFPPSDEQLKSGTASVVCLLNNFYPREAKVQWKVDNALQSGNSQESVTEQDSKDSTYSLSSTLTLSKADYEKHKVYACEVTHQGLSSPVTKSFNRGEC
notes: 2+1 IgG CrossFab, inverted, with charge modifications; knob-into-hole, P329G L234A L235A; also called CD3opt (P035.093); CD3 P035.093

Legend:
[1] = biological target: T1, Human CD3ε stalk-Fc(knob)-Avi/CD3δ stalk-Fc(hole) (human); assay: SPR, biotinylated human CD3ε/δ on SA chip, TCB at 2 µg/ml; response normalised to anti-huIgG capture and referenced to the unstressed sample; after 2 weeks at pH 6.0/40 °C
T1 construct: Heterodimeric Fc fusion; also called human CD3ε/δ; Human CD3 epsilon stalk-Fc(knob)-Avi
Experimental: (§1) In order to assess the effect of the deamidation site removal and its effect on the stability of the antibodies, the optimized anti-CD3 antibodies (in TCB format) were incubated for 14 days at 37° C., pH 7.4 and at 40° C., pH 6 and further analyzed by SPR for their binding capability to human CD3ε/δ. Samples stored at −80° C. pH 6 were used as reference. The reference samples and the samples stressed at 40° C. were in 20 mM His, 140 mM NaCl, pH 6.0, and the samples stressed at 37° C. in PBS, pH 7.4, all at a concentration of 1.0 mg/ml. After the stress period (14 days) samples in PBS were dialyzed back to 20 mM His, 140 mM NaCl, pH 6.0 for further analysis.
(§2) All SPR experiments were performed on a Biacore T200 instrument (GE Healthcare) at 25° C. with HBS-P+ (10 mM HEPES, 150 mM NaCl pH 7.4, 0.05% Surfactant P20) as running and dilution buffer. Biotinylated human CD3ε/δ (see Example 3, SEQ ID NOs 41 and 42) as well as biotinylated anti-huIgG (Capture Select, Thermo Scientific, #7103262100) were immobilized on a Series S Sensor Chip SA (GE Healthcare, #29104992), resulting in surface densities of at least 1000 resonance units (RU). Anti-CD3 antibodies with a concentration of 2 μg/ml were injected for 30 s at a flow rate of 5 μl/min, and dissociation was monitored for 120 s. The surface was regenerated by injecting 10 mM glycine pH 1.5 for 60 s. Bulk refractive index differences were corrected by subtracting blank injections and by subtracting the response obtained from a blank control flow cell. For evaluation, the binding response 5 seconds after injection end was taken. To normalize the binding signal, the CD3 binding was divided by the anti-huIgG response (the signal (RU) obtained upon capture of the CD3 antibody on the immobilized anti-huIgG antibody). The relative binding activity was calculated by referencing each temperature stressed sample to the corresponding, non-stressed sample.

[2] = biological target: T1, Human CD3ε stalk-Fc(knob)-Avi/CD3δ …; assay: SPR, biotinylated human CD3ε/δ on SA chip, TCB at 2 µg/ml; response normalised to anti-huIgG capture and referenced to the unstressed sample; after 2 weeks at pH 7.4/37 °C
Experimental: as §1, §2

[3] = biological target: T1, Human CD3ε stalk-Fc(knob)-Avi/CD3δ …; assay: SPR, Biacore T200, 25 °C; monovalent IgG captured by anti-PG antibody on C1 chip, CD3ε/δ-Fc as analyte; triplicates
Experimental: (§3) Kinetic constants were derived using the Biacore T200 Evaluation Software (GE Healthcare Life Sciences), to fit rate equations for 1:1 Langmuir binding by numerical integration. The half-life (t_{1/2}) of the interaction was calculated using the formula t_{1/2}=ln 2/koff.
(§4) To analyze the interaction to CD3, IgG molecules were captured for 240 s at 50 nM with a flow rate of 5 μl/min. Human and cynomolgus CD3ε stalk-Fc(knob)-Avi/CD3δ-stalk-Fc(hole) were passed at a concentration of 0.061-250 nM with a flow rate of 30 μl/min through the flow cells for 300 s. The dissociation was monitored for 800 s.

[4] = biological target: T2, Cynomolgus CD3ε stalk-Fc(knob)-Avi/CD3δ stalk-Fc(hole) (cynomolgus); assay: as above
T2 construct: Heterodimeric Fc fusion; also called cynomolgus CD3ε/δ
Experimental: as §3, §4

[5] = biological target: T1, Human CD3ε stalk-Fc(knob)-Avi/CD3δ …; assay: SPR, Biacore T200, 25 °C; monovalent IgG captured by anti-PG antibody on C1 chip, CD3ε/δ-Fc as analyte; 1:1 Langmuir fit; triplicates
Experimental: as §3, §4

[6] = biological target: T2, Cynomolgus CD3ε stalk-Fc(knob)-Avi/CD3δ …; assay: as above
Experimental: as §3, §4

[7] = biological target: T1, Human CD3ε stalk-Fc(knob)-Avi/CD3δ …; assay: SPR, biotinylated human CD3ε/δ on SA chip, monovalent IgG; response normalised to anti-huIgG capture and referenced to the unstressed sample; after 2 weeks at pH 6.0/40 °C
Experimental: as §2

[8] = biological target: T1, Human CD3ε stalk-Fc(knob)-Avi/CD3δ …; assay: SPR, biotinylated human CD3ε/δ on SA chip, monovalent IgG; response normalised to anti-huIgG capture and referenced to the unstressed sample; after 2 weeks at pH 7.4/37 °C
Experimental: as §2

[9] = biological target: T1, Human CD3ε stalk-Fc(knob)-Avi/CD3δ …; assay: SPR, monovalent IgG format
[10] = biological target: B1; assay: cell-based or functional assay
[11] = biological target: TYRP1 TCB with CD3 binder CH2527; assay: cell-based or functional assay
[12] = biological target: T3, TCB with CD3 binding Fab P035.093 (analyte of Table 9); assay: SPR, Biacore T200; anti-idiotypic IgG amine-coupled on CM5 chip, TCB as analyte; 1:1 Langmuir fit; single dilution series
T3 construct: not shown: Target-cell arm (TYRP1 or FOLR1 16D5), constant regions and Fc
Experimental: (§5) SPR experiments were performed on a Biacore T200 with HBS-EP+ as running buffer (0.01 M HEPES pH 7.4, 0.15 M NaCl, 0.005% Surfactant P20 (BR-1006-69, GE Healthcare)). Three anti-idiotypic antibodies were directly immobilized by amine coupling on a CMS chip (GE Healthcare). A three-fold dilution series of the different T cell bispecifics (TCBs) was passed 20 over the ligand at 30 μl/min for 180 sec to record the association phase. The dissociation phase was monitored for 600 s and triggered by switching from the sample solution to HBS-EP+. The chip surface was regenerated after every cycle using one injection of 10 mM glycine pH 2.1 for 60 sec, followed by two injections of 30 sec. Bulk refractive index differences were corrected for by subtracting the response obtained on the reference flow cell 1. The affinity constants were derived from the kinetic rate constants by fitting to a 1:1 Langmuir binding using the Biaeval 5 software (GE Healthcare). The measure was performed with a single dilution series.
(§6) SPR analysis was evaluated with masks as IgGs (immobilized on CM5 chip) and TCBs with different CD3 binding Fabs as analytes.

[13] = biological target: T4, TCB with CD3 binding Fab CH2527 (analyte of Table 9); assay: as above
T4 construct: also called CD3 CH2527; not shown: Target-cell arm (TYRP1 or FOLR1 16D5), constant regions and Fc
Experimental: as §5, §6

[14] = biological target: T5, FOLR1 CD3 TCB P035.093; assay: SPR, Biacore T200, 37 °C; FOLR1 CD3 TCB P035.093 captured on FOLR1-Fc (C1 chip), anti-idiotypic antibody as analyte; n=5; Stdev 140 s
T5 construct: Classical 2+1 TCB, knob-into-hole, PGLALA; the common light chain pairs with each of the Fabs; also called FOLR1 TCB CD3: P035.093
Experimental: (§7) Briefly, FOLR1-Fc was immobilized on a series s sensor chip C1 using standard amine coupling chemistry according to the manufacturer's instructions. […] The first flow cell was kept as mock surface. […] Dissociation was monitored for 300 s, the flow rate was set to 30 μl/min. The surface was regenerated by injecting 10 mM Glycine pH 2.0 for 60 s, followed by injecting 5 mM NaOH for 60 s at a flow rate of 5 μl/min. Bulk refractive index differences were corrected by subtracting the response obtained from flow cell one (mock surface) as well as by substracting buffer injections (double referencing). The derived curves were fitted to a 1:1 Langmuir binding model using the BIAevaluation software (GE Healthcare). […] All experiments were performed at 37° C. using HBS-N (10 mM HEPES, 150 mM NaCl pH 7.4, 0.05% Surfactant P-20).

[15] = biological target: T5, FOLR1 CD3 TCB P035.093; assay: SPR, Biacore T200, 37 °C; FOLR1 CD3 TCB P035.093 captured on FOLR1-Fc (C1 chip), anti-idiotypic antibody 1.2-100 nM as analyte; 1:1 Langmuir fit; n=5; Stdev 0.4 nM
Experimental: as §7

T2 sequence (chain, as listed by the source mutant limits assumed, chain 1 of 2): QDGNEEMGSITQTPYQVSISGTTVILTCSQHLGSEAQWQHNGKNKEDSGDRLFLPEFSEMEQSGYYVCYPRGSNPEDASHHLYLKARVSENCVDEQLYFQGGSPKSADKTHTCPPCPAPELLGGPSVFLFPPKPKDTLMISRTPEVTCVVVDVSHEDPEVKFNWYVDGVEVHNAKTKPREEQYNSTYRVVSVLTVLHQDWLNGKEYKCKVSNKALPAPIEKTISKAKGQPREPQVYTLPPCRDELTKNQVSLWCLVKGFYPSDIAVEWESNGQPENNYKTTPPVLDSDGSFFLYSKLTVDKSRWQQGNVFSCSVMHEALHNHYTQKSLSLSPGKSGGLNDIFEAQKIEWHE
T2 sequence (chain, as listed by the source mutant limits assumed, chain 2 of 2): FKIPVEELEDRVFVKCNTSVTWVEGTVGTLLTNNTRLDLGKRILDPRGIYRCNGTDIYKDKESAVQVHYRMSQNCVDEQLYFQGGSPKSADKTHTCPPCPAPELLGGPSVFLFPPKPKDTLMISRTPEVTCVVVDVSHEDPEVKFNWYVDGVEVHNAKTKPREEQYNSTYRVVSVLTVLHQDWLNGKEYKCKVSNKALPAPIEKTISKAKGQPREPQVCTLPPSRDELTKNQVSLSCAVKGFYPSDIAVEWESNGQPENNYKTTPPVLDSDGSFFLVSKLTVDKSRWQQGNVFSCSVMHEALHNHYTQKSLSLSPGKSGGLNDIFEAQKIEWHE

In the case of B1, the “binding activity [%]” value [1] is reported as 97% and the “binding activity [%]” value [2] is reported as 95%.

B2: Anti-CD3 antibody clone P035.093 in monovalent human IgG1 format (antibody, V domains shown)
VH: EVQLLESGGGLVQPGGSLRLSCAASGFTFSSYAMNWVRQAPGKGLEWVSRIRSKYNNYATYYADSVKGRFTISRDDSKNTLYLQMNSLRAEDTAVYYCVRASNFPASYVSYFAYWGQGTLVTVSS
VL: QAVVTQEPSLTVSPGGTVTLTCGSSTGAVTTSNYANWVQEKPGQAFRGLIGGTNKRAPGTPARFSGSLLGGKAALTLSGAQPEDEAEYYCALWYSNLWVFGGGTKLTVL
notes: Monovalent human IgG1 with crossed VH and VL domains; knob-into-hole; P329G L234A L235A; also called P035.093 (monovalent IgG)
B2 showed a t1/2 [3] of 8.25 min, a t1/2 [4] of 11.8 min and a Kd [5] of 0.456 nM. The Kd [6] was 0.224 nM and the “binding activity [%]” value [7] was 100%.

B3: CD3orig in monovalent human IgG1 format (antibody, V domains shown)
VH: not shown
VL: QAVVTQEPSLTVSPGGTVTLTCGSSTGAVTTSNYANWVQEKPGQAFRGLIGGTNKRAPGTPARFSGSLLGGKAALTLSGAQPEDEAEYYCALWYSNLWVFGGGTKLTVL
notes: Monovalent human IgG1 with crossed VH and VL domains; knob-into-hole; P329G L234A L235A; also called CD3orig (monovalent IgG)
Work on B3 yielded a t1/2 [3] of 3.98 min, a Kd [5] of 4.94 nM and a koff [5] of 0.0029 s⁻¹. The kon [5] was 587000 M⁻¹ s⁻¹, the “binding activity [%]” value [7] was 97% and the “binding activity [%]” value [8] was 60%.

B4: Anti-CD3 antibody clone P033.078 in monovalent human IgG1 format (antibody, V domains shown)
VH: EVQLLESGGGLVQPGGSLRLSCAASGFTFESYAMNWVRQAPGKGLEWVSRIRSKYNEYATYYADSVKGRFTISRDDSKNTLYLQMNSLRAEDTAVYYCVRASNFPSSFVSYFGYWGQGTLVTVSS
VL: QAVVTQEPSLTVSPGGTVTLTCGSSTGAVTTSNYANWVQEKPGQAFRGLIGGTNKRAPGTPARFSGSLLGGKAALTLSGAQPEDEAEYYCALWYSNLWVFGGGTKLTVL
notes: knob-into-hole; P329G L234A L235A; also called P033.078 (monovalent IgG)
With B4 the “fold of binding half-life over CD3orig” value [9] was > 2 fold, the t1/2 [3] was 8.69 min and the t1/2 [4] was 11.1 min. The Kd [5] was 0.771 nM, the koff [5] was 0.00133 s⁻¹ and the kon [5] was 1.73e+06 M⁻¹ s⁻¹. For the same binder, the Kd [6] was 0.403 nM, the koff [6] was 0.00104 s⁻¹ and the kon [6] was 2.6e+06 M⁻¹ s⁻¹. The “binding activity [%]” value [7] was 98% and the “binding activity [%]” value [8] was 95%.

B5: Anti-idiotypic IgG 4.24.72 (parental chimeric antibody) (antibody, V domains shown)
VH: QIQLVQSGPELKKPGETVKISCKASGYTVTDYSMNWVKQAPGKCLKWMGWINTETGEPRYTDDFKGRFAFSLETSASTAYLQINNLKNEDSATYFCAREGDYDVFDYWGHGTTLKVSS
VL: DIVLTQSPASLAVSLGQRATISCRASKSVSTSSYSYMHWYQQKPGQPPKLLIKYVSYLESGVPARFSGSGSGTDFTLNIHPVEEEDAATYYCQHSREFPYTFGCGTKLEIK
notes: Tested as chimeric IgG; also called ID_4.24.72
For B5, the “IC50 (read off the curve): reduction of Jurkat NFAT luminescence by anti-ID 4.24.72 IgG, TYRP1 TCB (CD3 variant P035.093) at EC90” value [10] was ~1 nM, the “IC50 (read off the curve): reduction of Jurkat NFAT luminescence by anti-ID 4.24.72 IgG, TYRP1 TCB (CH2527) at EC90” value [11] was ~1 nM and the Kd [12] was 2.1 nM. For the same binder, the koff [12] was 0.000309 s⁻¹, the kon [12] was 148000 M⁻¹ s⁻¹ and the Kd [13] was 4.7 nM. The koff [13] was 0.000675 s⁻¹, the kon [13] was 141000 M⁻¹ s⁻¹ and the “t1/2 diss” value [14] was 446 s. The Kd [15] was 1.5 nM.
